Laboratory results: patent US20190336574A1 (TRUSTEES OF PRINCETON UNIVERSITY, published 2019)

Columns and labels:
[1] = biological target: human AGO2 (ectopically expressed in HEK293T cells) (human, UniProt Q9UKV8 1-859); test: anti-Myc co-IP from HEK293T lysate (HA-SND1 and FLAG-AGO2 co-expressed), western blot
Description: Two putative nuclear localization signals are residues 432-451 for NLS2 and residues 561-580 for NLS3. […] (FIG. 7B) Pulldown of His6-SND1ΔC by GST-tagged MTDH fragments with indicated boundaries. The bound proteins were examined by SDS-PAGE and visualized by Coomassie blue staining. […] For (FIG. 7B) and (FIG. 7C), 1/10 of the His6-SND1ΔC input was shown, and GST alone was used as a negative control. Representative results of 3 independent experiments are shown. (FIG. 7D, FIG. 7E) Lysates from HEK293T cells expressing the indicated ectopic human SND1, AGO2 or MTDH were immunoprecipitated with anti-Myc and immunoblotted with the indicated antibodies.
Immunoprecipitation and western blot For immunoprecipitation (IP) experiments, cultured cells were washed in cold PBS and lysed in lysis buffer (20 mM Tris pH 7.4, 0.15 M NaCl, 1 mM EDTA, 1 mM EGTA, 1% Tx-100, 0.0025 M Na2P2O7, 1 mM α-glycerolphosphate, 1 mM Na3VO4, and 1 mM NaF) with an EDTA-free protease inhibitor mixture (Roche Applied Science) and PMSF. Cell lysates were then incubated on ice for 10 min, centrifuged, and precleared by incubating with protein A/G beads (Santa Cruz Biotechnology) for 1 h at 4° C. For IP bead preparation, 30 μl of protein A/G beads were incubated with 5 μg of antibodies for 2 h at 4° C. […]

[2] = biological target: T1, HA-SND1 F250A, full-length human (human, UniProt Q7KZF4 1-910); test: co-IP (anti-Myc) from HEK293T lysates, western blot
T1 construct: Full-length, HA-tagged
T1 sequence: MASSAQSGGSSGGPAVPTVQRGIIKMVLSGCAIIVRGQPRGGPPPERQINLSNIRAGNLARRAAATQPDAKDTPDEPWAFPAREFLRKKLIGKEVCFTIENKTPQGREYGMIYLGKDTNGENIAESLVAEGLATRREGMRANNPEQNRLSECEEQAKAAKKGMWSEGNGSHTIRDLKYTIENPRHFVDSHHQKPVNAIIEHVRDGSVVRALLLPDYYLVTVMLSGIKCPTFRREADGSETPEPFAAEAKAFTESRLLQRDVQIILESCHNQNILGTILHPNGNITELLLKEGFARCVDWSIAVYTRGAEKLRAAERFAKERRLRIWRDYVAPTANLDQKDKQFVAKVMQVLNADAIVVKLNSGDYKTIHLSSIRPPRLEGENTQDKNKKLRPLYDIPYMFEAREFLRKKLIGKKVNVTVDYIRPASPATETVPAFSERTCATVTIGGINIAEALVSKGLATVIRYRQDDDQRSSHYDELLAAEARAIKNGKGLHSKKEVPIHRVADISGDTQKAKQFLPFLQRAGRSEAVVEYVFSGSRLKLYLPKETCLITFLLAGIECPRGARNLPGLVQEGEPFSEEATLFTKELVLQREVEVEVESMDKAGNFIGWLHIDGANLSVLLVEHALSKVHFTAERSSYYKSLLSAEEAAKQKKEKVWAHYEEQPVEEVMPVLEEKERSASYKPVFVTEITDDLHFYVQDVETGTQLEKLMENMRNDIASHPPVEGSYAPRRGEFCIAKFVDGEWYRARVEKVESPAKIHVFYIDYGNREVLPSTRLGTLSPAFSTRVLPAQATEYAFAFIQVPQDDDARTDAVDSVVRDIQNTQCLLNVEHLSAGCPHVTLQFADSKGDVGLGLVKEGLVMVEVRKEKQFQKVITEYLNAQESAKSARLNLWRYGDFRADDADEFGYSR

Chain of human AGO2 (ectopically expressed in HEK293T cells) (Q9UKV8 whole entry, the tested form may be a part): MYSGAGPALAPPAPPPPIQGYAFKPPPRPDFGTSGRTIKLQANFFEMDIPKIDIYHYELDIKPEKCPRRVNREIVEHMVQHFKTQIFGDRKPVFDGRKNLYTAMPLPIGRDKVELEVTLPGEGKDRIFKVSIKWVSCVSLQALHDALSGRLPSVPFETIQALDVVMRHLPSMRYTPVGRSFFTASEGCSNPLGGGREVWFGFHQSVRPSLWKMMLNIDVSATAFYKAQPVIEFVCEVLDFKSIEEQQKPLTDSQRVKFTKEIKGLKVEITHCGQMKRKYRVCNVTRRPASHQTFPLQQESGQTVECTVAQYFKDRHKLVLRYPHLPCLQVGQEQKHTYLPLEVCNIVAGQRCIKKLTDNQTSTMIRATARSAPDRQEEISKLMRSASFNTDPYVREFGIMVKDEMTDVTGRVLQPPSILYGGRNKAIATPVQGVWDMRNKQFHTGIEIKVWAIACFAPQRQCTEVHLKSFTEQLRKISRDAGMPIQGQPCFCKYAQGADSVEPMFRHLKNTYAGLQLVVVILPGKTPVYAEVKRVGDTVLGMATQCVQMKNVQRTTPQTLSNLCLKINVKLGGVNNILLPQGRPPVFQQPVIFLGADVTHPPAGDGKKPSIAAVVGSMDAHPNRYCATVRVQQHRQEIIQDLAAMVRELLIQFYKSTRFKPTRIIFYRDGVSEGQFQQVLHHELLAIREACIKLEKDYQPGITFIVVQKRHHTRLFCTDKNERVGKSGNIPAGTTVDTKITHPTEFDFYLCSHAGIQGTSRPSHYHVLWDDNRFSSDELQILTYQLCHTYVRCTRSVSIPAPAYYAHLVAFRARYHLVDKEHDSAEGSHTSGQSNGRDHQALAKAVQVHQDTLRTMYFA

B1: Myc-MTDH, full-length human, wild type (other)
chain: MAARSWQDELAQQAEEGSARLREMLSVGLGFLRTELGLDLGLEPKRYPGWVILVGTGALGLLLLFLLGYGWAAACAGSRKKRRSPPRKREEAAAVPAAAPDDLALLKNLRSEEQKKKNRKKLSEKPKPNGRTVEVAEGEAVRTPQSVTAKQPPEIDKKNEKSKKNKKKSKSDAKAVQNSSRHDGKEVDEGAWETKISHREKRQQRKRDKVLTDSGSLDSTIPGIENTITVTTEQLTTASFPVGSKKNKGDSHLNVQVSNFKSGKGDSTLQVSSGLNENLTVNGGGWNEKSVKLSSQISAGEEKWNSVSPASAGKRKAEPSAWSQDTGDANTNGKDWGRSWSDRSIFSGIGSTAEPVSQSTTSDYQWDVSRNQPYIDDEWSGLNGLSSADPNSDWNAPAEEWGNWVDEERASLLKSQEPIPDDQKVSDDDKEKGEGALPTGKSKKKKKKKKKQGEDNSTAQDTEELEKEIREDLPVNTSKTRPKQEKAFSLKTISTSDPAEVLVKNSQPIKTLPPATSTEPSVILSKSDSDKSSSQVPPILQETDKSKSNTKQNSVPPSQTKSETSWESPKQIKKKKKARRET
notes: Full-length, Myc-tagged; Expressed in HEK293T cells, tested in lysate; also called Myc-tagged MTDH; WT Myc-MTDH
[1]
  binding result: binds
[2]
  binding result: no binding
